Legend:
GATA2-Zf [1] = biological target: T1, GATA2-Zf (UniProt P23769 291-412); assay: fluorescence anisotropy; Hill n 3.1±0.4; Fluorescence anisotropy: 10 nM DNA, 20 mM Hepes pH 8.0, 50 mM NaCl, 1 mM MgCl2, 3 mM DTT, 5% glycerol, 10°C; agarose gel 1.3% in 0.5x TBE; settings: protein: recombinant; tags: His, thrombin treated; label: 5' fluorescein (FITC) on forward strand; blunt
[2] = biological target: T2, TRβ1 DBD-LBD (TR DL, TRβ1ΔAB) (human, UniProt P10828 102-461); assay: fluorescence anisotropy; no T3; up to 10000 nM; Fluorescence anisotropy: 10 nM DNA, 20 mM Hepes pH 8.0, 50 mM NaCl, 1 mM MgCl2, 3 mM DTT, 5% glycerol, 10°C; agarose gel 1.3% in 0.5x TBE; settings: protein: recombinant; tags: His (pET28a); chain copies: 2; label: 5' fluorescein (FITC) on forward strand; blunt
T2 sequence: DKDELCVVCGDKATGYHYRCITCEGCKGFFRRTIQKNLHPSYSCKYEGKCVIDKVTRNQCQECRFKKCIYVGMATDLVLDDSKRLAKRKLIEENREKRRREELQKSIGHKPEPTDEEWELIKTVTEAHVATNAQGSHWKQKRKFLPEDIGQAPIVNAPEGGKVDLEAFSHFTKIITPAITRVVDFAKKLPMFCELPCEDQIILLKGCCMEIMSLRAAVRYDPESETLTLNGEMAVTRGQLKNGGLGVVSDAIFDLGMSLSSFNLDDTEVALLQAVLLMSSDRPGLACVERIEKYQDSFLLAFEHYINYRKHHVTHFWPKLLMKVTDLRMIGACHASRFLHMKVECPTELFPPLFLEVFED

TRβ1 DBD (TRβ1ΔAB/EF) = biological target: T3, TRβ1 DBD (TRβ1ΔAB/EF) (human, UniProt P10828 102-198); assay: gel filtration + agarose EMSA; 100 uM protein; DNA label not stated; Fluorescence anisotropy: 10 nM DNA, 20 mM Hepes pH 8.0, 50 mM NaCl, 1 mM MgCl2, 3 mM DTT, 5% glycerol, 10°C; agarose gel 1.3% in 0.5x TBE; settings: protein: recombinant; tags: His (pET28a); label: 5' fluorescein (FITC) on forward strand; blunt
T3 sequence: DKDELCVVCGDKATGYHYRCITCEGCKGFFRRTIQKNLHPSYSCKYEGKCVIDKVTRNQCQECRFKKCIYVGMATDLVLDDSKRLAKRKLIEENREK

[3] = biological target: T2, TRβ1 DBD-LBD (TR DL, TRβ1ΔAB); assay: fluorescence anisotropy; T3; Hill n 2±0.4; Fluorescence anisotropy: 10 nM DNA, 20 mM Hepes pH 8.0, 50 mM NaCl, 1 mM MgCl2, 3 mM DTT, 5% glycerol, 10°C; agarose gel 1.3% in 0.5x TBE; settings: protein: recombinant; tags: His (pET28a); chain copies: 2; label: 5' fluorescein (FITC) on forward strand; blunt
[4] = biological target: T2, TRβ1 DBD-LBD (TR DL, TRβ1ΔAB); assay: fluorescence anisotropy; no T3; Hill n 1±0.1; Fluorescence anisotropy: 10 nM DNA, 20 mM Hepes pH 8.0, 50 mM NaCl, 1 mM MgCl2, 3 mM DTT, 5% glycerol, 10°C; agarose gel 1.3% in 0.5x TBE; settings: protein: recombinant; tags: His (pET28a); chain copies: 2; label: 5' fluorescein (FITC) on forward strand; blunt
[5] = biological target: T2, TRβ1 DBD-LBD (TR DL, TRβ1ΔAB); assay: fluorescence anisotropy; no T3; Hill n 3.5±0.1; Fluorescence anisotropy: 10 nM DNA, 20 mM Hepes pH 8.0, 50 mM NaCl, 1 mM MgCl2, 3 mM DTT, 5% glycerol, 10°C; agarose gel 1.3% in 0.5x TBE; settings: protein: recombinant; tags: His (pET28a); chain copies: 2; label: 5' fluorescein (FITC) on forward strand; blunt
GATA2-Zf [6] = biological target: T1, GATA2-Zf; assay: fluorescence anisotropy; Hill n 1.3±0.4; Fluorescence anisotropy: 10 nM DNA, 20 mM Hepes pH 8.0, 50 mM NaCl, 1 mM MgCl2, 3 mM DTT, 5% glycerol, 10°C; agarose gel 1.3% in 0.5x TBE; settings: protein: recombinant; tags: His, thrombin treated; label: 5' fluorescein (FITC) on forward strand; blunt

T1 sequence (P23769 291-412): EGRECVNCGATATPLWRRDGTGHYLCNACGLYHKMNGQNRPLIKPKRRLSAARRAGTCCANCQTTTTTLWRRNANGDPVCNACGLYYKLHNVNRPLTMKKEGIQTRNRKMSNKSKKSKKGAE

B1: TSH GATA-RE (dsDNA)
DNA 1: TCAATAGATGCTTTTCAGATAAGAA
DNA 2: TTCTTATCTGAAAAGCATCTATTGA
- Kd (GATA2-Zf [1]): 689 ± 38.7 nM
- binding result [2]: no binding
- binding result (TRβ1 DBD (TRβ1ΔAB/EF)): binds

B2: DR4 TRE (dsDNA)
DNA 1: AGTTCAGGTCACAGGAGGTCAGAG
DNA 2: CTCTGACCTCCTGTGACCTGAACT
- Kd [3]: 1980 ± 295 nM
- Kd [4]: 2040 ± 266 nM

B3: TSH NRE (dsDNA)
DNA 1: TGGGTCACCACAGCATCTGCTCACCAATGCAAAGT
DNA 2: ACTTTGCATTGGTGAGCAGATGCTGTGGTGACCCA
- Kd [5]: 316 ± 29 nM

B4: GATA-RE (canonical) (dsDNA)
DNA 1: CACTTGATAACAGAAAGTGATAACTCT
DNA 2: AGAGTTATCACTTTCTGTTATCAAGTG
- Kd (GATA2-Zf [6]): 14.9 ± 1.5 nM
- binding result [2]: no binding

Source: article PMC2935386, “Dissecting the Relation between a Nuclear Receptor and GATA: Binding Affinity Studies of Thyroid Hormone Receptor and GATA2 on TSHβ Promoter”
